According to paper PMC11629141 (2024):
Residue numbers refer to the chain shown, from its start. Names and notes keep the numbering of the source. One block for each binder: values may come before it.

Key:
[1] = molecular target: T1, S2B‐R101A‐6G11 post MMP‐9 digestion (scFv cleaved off, not removed) (human | chicken); experiment: BLI; MMP-9 cleaved
Target sequence in this assay (heavy, as listed by the source, chain 2 of 2): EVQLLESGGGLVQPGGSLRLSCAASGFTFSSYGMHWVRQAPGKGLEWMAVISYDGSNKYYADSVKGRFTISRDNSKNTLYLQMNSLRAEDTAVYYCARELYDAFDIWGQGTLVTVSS
Target sequence in this assay (light, as listed by the source, chain 4 of 2): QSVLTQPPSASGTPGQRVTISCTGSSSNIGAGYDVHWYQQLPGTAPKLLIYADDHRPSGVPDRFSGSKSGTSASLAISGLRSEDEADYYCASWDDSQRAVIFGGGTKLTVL

[2] = molecular target: T1, S2B‐R101A‐6G11 post MMP‐9 digestion …; experiment: BLI
[3] = molecular target: T2, S2B‐W104A‐6G11 post MMP‐9 digestion (scFv cleaved off, not removed) (human | chicken); experiment: BLI
[4] = molecular target: T3, S2B‐Y52A‐6G11 post MMP‐9 digestion (scFv cleaved off, not removed) (human | chicken); experiment: BLI
[5] = molecular target: T3, S2B‐Y52A‐6G11 post MMP‐9 digestion …; experiment: BLI; MMP-9 cleaved
Target sequence in this assay (heavy, as listed by the source, chain 2 of 2): as the sequence (heavy, as listed by the source, chain 2 of 2) above
Target sequence in this assay (light, as listed by the source, chain 4 of 2): as the sequence (light, as listed by the source, chain 4 of 2) above

[6] = molecular target: T2, S2B‐W104A‐6G11 post MMP‐9 digestion …; experiment: BLI; MMP-9 cleaved
Target sequence in this assay (heavy, as listed by the source, chain 2 of 2): as the sequence (heavy, as listed by the source, chain 2 of 2) above
Target sequence in this assay (light, as listed by the source, chain 4 of 2): as the sequence (light, as listed by the source, chain 4 of 2) above

[7] = molecular target: T4, 6G11 (BI‐1206), full‐length antibody containing the PGLALA Fc mutations (human); experiment: BLI
[8] = molecular target: T4, 6G11 (BI‐1206), full‐length antibody …; experiment: ELISA
[9] = molecular target: T4, 6G11 (BI‐1206), full‐length antibody …; experiment: ELISA; first of two printed values (3.3/28.7)

T4 sequence (VH, as listed by the source, chain 1 of 2): as the sequence (heavy, as listed by the source, chain 2 of 2) above
T4 sequence (VL, as listed by the source, chain 2 of 2): as the sequence (light, as listed by the source, chain 4 of 2) above

B1: His‐tagged human FcγRIIB extracellular domain protein (domain or fragment)
chain: TPAAPPKAVLKLEPQWINVLQEDSVTLTCRGTHSPESDSIQWFHNGNLIPTHTQPSYRFKANNNDSGEYTCQTGQTSLSDPVHLTVLSEWLVLQTPHLEFQEGETIVLRCHSWKDKPLVKVTFFQNGKSKKFSRSDPNFSIPQANHSHSGDYHCTGNIGYTLYSSKPVTITVQAP
Kd [1]: 10.7 nM | Kd [2]: 10.7 nM | Kd [3]: 10.3 nM | Kd [4]: 10.1 nM | Kd [5]: 10.1 nM | Kd [6]: 10.3 nM

B3: S2B Y52A scFv, solitary (scFv, V domains shown)
VH: AVTLDESGGGLQTPGGGLSLVCKASGFTFSSYSMVWVRQAPSKRLEWVAGIASSATWTYYAPAVKGRATISRDNGQSTVRLQLNDLRAEDTGTYFCAKTSRSGWTAYSASAIDAWGHGTEVIV
VL: ALTQPSSVSANPGETVKITCSGGSSYYGWYQQKSPGSAPVTVIYSNDKRPSDIPSRFSGSTSGSTATLTITGVQADDEAVYFCGGYDSNIHGGIFGAGTTLTVL
Kd [7]: 4.3 nM | EC50 [8]: 11.2 nM

B4: S2B scFv (blocking anti‐6G11 scFv clone 2), solitary (scFv, V domains shown)
VH: B3 VH with A52Y
VL: B3 VL
Kd [7]: 1 nM | EC50 [9]: 3.3 nM

B6: S2B R101A scFv, solitary (scFv, V domains shown)
VH: B3 VH with A52Y, R101A
VL: B3 VL
EC50 [8]: 3.7 nM

Now from value to binder:

Kd [7]: 9.6 nM | EC50 [8]: 6.7 nM
B2: S2B W104A scFv, solitary (scFv, V domains shown)
VH: B3 VH with A52Y, W104A
VL: B3 VL

Kd [7]: 0.8 nM | EC50 [8]: 2.7 nM
B5: S2B S164A scFv, solitary (scFv, V domains shown)
VH: B3 VH with A52Y
VL: B3 VL with S24A
